Values belong to the binder of their own block, whether it stands above or below them.
Experiments:
[1] = target: T1, DualAE05-SG1202k/SG1201hV11 (engineered Cys at position 191 (EU) of CH1, unpaired); test: SPR (Biacore T200, 37 C), tool antibody captured on mouse anti-human Fc, anti-CH1 antibody injected
T1 construct: Heterodimeric antibody with S191C in only one Fab arm, so it exists only in the “unpaired cysteines” form; not shown: light chain constant region
Method: (§1) Biacore binding experiments were performed to characterize binding activities of the anti-CH1 antibodies prepared in Example 3.2 to DualAE05-SG1201, DualAE05-SG1202, DualAE05-SG1202k/SG1201hV11, IgG1_001 and IgG4_001 at 37 degrees C. using Biacore T200 instrument (GE Healthcare). Specifically, mouse anti-human Fc (GE Healthcare) was immobilized onto all flow cells of a CM4 sensor chip using amine coupling kit (GE Healthcare). Tool antibodies DualAE05-SG1201, DualAE05-SG1202, DualAE05-SG1202k/SG1201hV11, IgG1_001 and IgG4_001 were captured onto flow cell, and then anti-CH1 antibodies obtained from Example 3.2 was injected over all the flow cells. All antibodies were prepared in ACES pH 7.4 containing 20 mM ACES, 150 mM NaCl, 0.05% Tween 20, 0.005% NaN₃. Sensor surface was regenerated each cycle with 3M MgCl₂.

DualAE05-SG1202 = target: T2, DualAE05-SG1202 (Heavy chain pos 202 is the engineered Cys (S191C, EU). It can form an inter-Fab disulfide between the two heavy chains, so the preparation is a mixture of the paired and unpaired cysteine forms.); test: as above
T2 construct: Corresponds to DualAE05-SG1201 with S191C in both Fab arms
Method: as §1

DualAE05-SG1201 = target: T3, DualAE05-SG1201; test: as above
T3 construct: Bivalent tool antibody with human IgG1 CH1 without S191C
Method: as §1

IgG1_001 = target: T4, IgG1_001; test: as above
T4 construct: Tool antibody for screening; captured on mouse anti-human Fc; copies: 2 + 2
T4 sequence (VH, as listed by the source limits assumed, chain 1 of 2): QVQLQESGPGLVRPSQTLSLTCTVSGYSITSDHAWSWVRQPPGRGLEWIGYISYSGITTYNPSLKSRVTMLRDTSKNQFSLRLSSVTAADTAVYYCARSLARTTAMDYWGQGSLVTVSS
T4 sequence (VL, as listed by the source limits assumed, chain 2 of 2): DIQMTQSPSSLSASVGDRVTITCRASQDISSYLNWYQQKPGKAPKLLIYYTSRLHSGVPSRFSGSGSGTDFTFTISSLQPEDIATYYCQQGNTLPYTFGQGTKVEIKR
Method: as §1

IgG4_001 = target: T5, IgG4_001; test: as above
T5 construct: Tool antibody for screening; captured on mouse anti-human Fc; copies: 2 + 2
T5 sequence (VH, as listed by the source limits assumed): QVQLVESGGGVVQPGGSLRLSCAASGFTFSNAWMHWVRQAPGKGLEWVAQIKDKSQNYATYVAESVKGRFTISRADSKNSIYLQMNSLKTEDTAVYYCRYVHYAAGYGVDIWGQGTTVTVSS
Method: as §1

Human CD3eg linker = target: T6, Human CD3eg linker (human); test: SPR (Biacore 8K), antibody captured on anti-human Fc, recombinant human CD3 as analyte, 25 C, 1:1 model
T6 construct: Single-chain soluble construct expressed in FreeStyle293F cells; used as the SPR analyte; also called recombinant human CD3
T6 chain: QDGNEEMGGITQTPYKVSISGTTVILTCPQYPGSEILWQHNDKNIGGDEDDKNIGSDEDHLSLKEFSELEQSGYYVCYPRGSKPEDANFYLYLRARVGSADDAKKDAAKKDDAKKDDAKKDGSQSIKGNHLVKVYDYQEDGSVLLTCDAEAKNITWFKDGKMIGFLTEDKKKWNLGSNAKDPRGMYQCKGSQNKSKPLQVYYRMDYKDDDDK
Method: Binding affinity of Dual-Fab antibodies (Dual-Ig) to human CD3 were assessed at 25 degrees C. using Biacore 8K instrument (GE Healthcare). Anti-human Fc (GE Healthcare) was immobilized onto all flow cells of a CM4 sensor chip using amine coupling kit (GE Healthcare). Antibodies were captured onto the anti-Fc sensor surfaces, then recombinant human CD3 or CD137 was injected over the flow cell. All antibodies and analytes were prepared in ACES pH 7.4 containing 20 mM ACES, 150 mM NaCl, 0.05% Tween 20, 0.005% NaN₃. Sensor surface was regenerated each cycle with 3M MgCl₂. […] CD137 binding affinity assay was conducted in same condition except assay temperature was set at 37 degrees C.

B1: FAB0060hh (antibody, V domains shown)
VH: QSLEESGGRLVTPGTPLTLTCTASGFSLSTYWMNWVRQAPGKGLEWIGTINIDGSAAYASWAKGRFTISRTSTTVDLKAASPTTEDTATYFCATYGGDIWGPGTLVTVSS
VL: DVVMTQTPASVSEPVGGTVTIKCQASQSISTALAWYQQKPGQPPKLLIYGASTLESGVPSRFKGSGSGTEFTLTISDLECADAATYYCQCTYYGNNYGNAFGGGTKVEIK
notes: Conformation-specific anti-CH1 antibody from immunised rabbits
Relative binding activity to tool antibody (normalized against RU binding value for IgG1_001) [1]: 0.957

B4: H1573L0581 (antibody, V domains shown)
VH: QVQLVESGGGLVQPGRSLRLSCAASGFKFSNVWFHWVRQAPGKGLEWVAQIKDYYNAYAAYYAPSVKGRFTISRDDSKNSIYLQMNSLKTEDTAVYYCHYVHYASASTLLPAFGVDAWGQGTTVTVSS
VL: DIVMTQSPLSLPVTPGEPASISCQPSQEVVHMNRNTYLHWYQQKPGQAPRLLIYKVSNRFPGVPDRFSGSGSGTDFTLKISRVEAEDVGVYYCAQGTSHPFTFGQGTKLEIK
notes: Dual-Fab antibody (Dual-Ig) captured via anti-human Fc; also called DualAE07; dBBDu183H1573/dBBDu072L0581
Kd (Human CD3eg linker): 156 nM

B5: FAB0135hh (antibody, V domains shown)
VH: QSLEESGGRLVTPGTPLTLTCTASGFSLSSYYMSWVRQAPGEGLEYIGWISSDGSTYYASWAKGRFTISRTSTTVDLKITSPTTEDTATYFCARDYAASNIWGPGTLVTVSS
VL: DVVMTQTPASVSEPVGGTVTIKCQASENIGNALAWYQQKPGQRPKLLIYGASNLESGVPSRFKGSRSGTEYTLTISDLECDDAATYYCQSTYYSSSYSNPFGGGTKVEIK
notes: as for B1
Relative binding activity to tool antibody (normalized against RU binding value for IgG1_001) [1]: 0.96

The remaining lines, values ahead:

Relative binding activity to tool antibody (normalized against RU binding value for IgG1_001) [1]: 0.929
B2: FAB0059ff (antibody, V domains shown)
VH: QSLEESGGRLVTPGTPLTLTCTASGFSLSSYWMNWVRQAPGKGLEWIGTVNIDGSTDYASWAKGRFTISRTSTTVDLKAASPTTEDTATYFCARYGGDIWGPGTLVIVSL
VL: DVVMTQTPASVSEPVGGTVTIKCQASQSISTALAWYQQKPGQPPKLLIYGASTLESGVPSRFKGSGSGTEFTLTISDLECADAATYYCQCTYYGSSYGNAFGGGTKVEIK
notes: as for B1

Relative binding activity to tool antibody (normalized against RU binding value for IgG1_001) [1]: 0.922
Relative binding activity to tool antibody (normalized against RU binding value for IgG1_001) (DualAE05-SG1202): 0.206
Relative binding activity to tool antibody (normalized against RU binding value for IgG1_001) (DualAE05-SG1201): 1.02
Relative binding activity to tool antibody (normalized against RU binding value for IgG1_001) (IgG1_001): 1
Relative binding activity to tool antibody (normalized against RU binding value for IgG1_001) (IgG4_001): -0.017
B3: FAB0133hh (antibody, V domains shown)
VH: QSLEESGGRLVTPGTPLTLTCTASGFSLSTYYMNWVRQAPGKGLEWIGTITIDGTAYYASWAKGRFTISRTSTTVDLKAASPTTEDTATYFCARYDGDIWGPGTLVTVSS
VL: DVVMTQTPASVSEPVGGTVTIKCQASQSISTALAWYQQKPGQPPKLLIHGASILESGVPSRFKGSGSGTEFTLTISDLECADVATYYCQCTYYGISYGNAFGGGTKVEIK
notes: as for B1

Source: patent US20230121511A1 (Chugai, published 2023)
